Data reported in patent US11685791B2, “Antibody binding specifically to N-terminal region of lysyl-tRNA synthetase exposed on cell membrane” (Zymedi Co., Ltd., priority 2017, dated 2023).

Experiments:
KRS 1-207 aa = target: T1, KRS 1-207 aa (Homo sapiens, UniProt Q15046); assay: SPR (Biacore 2000) binding of IgGs to immobilized KRS; conditions: immobilized KRS 185 RU, antibody 6.25-100 nM
T1 construct: to the antigen (KRS 1-207 aa)
Experimental: The quantitative binding ability of the purified antibody proteins (N3 IgG and N5 IgG) to the antigen (KRS 1-207 aa) were measured using Biacore 2000 SPR (surface plasmon resonance) (GE healthcare, US) biosensor. After KRS was immobilized on a sensor chip (CM5, GE healthcare, US), antibody proteins (6.25-100 nM), which were serially diluted with HES buffer solution (10 mM HEPES, pH 7.4, 150 mM NaCl, 3 mM EDTA, 0.005% surfactant P20), were allowed to flow at a rate of 30 μl/min for 3 min, and 1 M NaCl/20 mM NaOH was allowed to flow at a rate of 30 μl/min for 3 min, thereby inducing the dissociation of proteins bound to the antigen. Mock IgG was used as control. Specific experiment conditions are as follows:
Immobilized level: 185 RU
Antibody: N3 IgG and N5 IgG
Running buffer: HBS-N buffer
Regeneration: 2 M NaCl, 20 mM NaOH (flow 30 ul/min 1 min)
The affinity was obtained from the kinetic rate constants (ka and kd) and equilibrium dissociation constants (KD) by using BIA evaluation ver. 3.2 software. FIGS. 6A-6B show SPR graph results of N3 IgG and N5 IgG, respectively. It was confirmed from FIGS. 6A-6B and Table 3 that N3 IgG and N5 IgG of the present invention has high specific binding ability to the KRS N-terminal region.

A549 cells [1] = assay: MTT cytotoxicity assay; assay type: cell-based, human; conditions: 0, 50, 100, 500 nM, 24 h, serum-free media
Experimental: MTT assay was performed on N3 IgG as a representative. A549 cells were seeded in 96-well plates (5,000 cell/well) and incubated. The cells were washed with serum-free media, and then treated with human mock IgG and N3 IgG of 0, 50, 100, 500 nM (in serum-free media). After 24-h incubation, MTT solution was added with 50 μg/well, followed by incubation for 4 h. After MTT solution was removed, the wells were treated with 100 ul of DMSO, and then the absorbance was measured at 570 nm.

A549 cells [2] = assay: Transwell cell migration assay (laminin); assay type: cell-based, human; conditions: 100 nM or 500 nM, 24 h, laminin-coated Transwell
Experimental: Cell migration was measured using a 24-well Transwell chamber with polycarbonate membrane (8.0 μm pore size, Costar) as disclosed in the prior art (Park, S. G. et al., Human lysyl-tRNA synthetase is secreted to trigger pro-inflammatory response, Proc. Natl. Acad. Sci. USA 102, 6356-6361 (2005)). In the Transwell chamber, the lower well was coated with 10 μg of laminin (in gelatin) and dried with UV. Thereafter, A549 cells were suspended in serum-free RPIM media, and then placed at a concentration of 1×10^5 cells per well in the upper chamber. The chamber was treated with N3 IgG or human mock IgG (control) at 100 nM or 500 nM, followed by incubation for 24 h. Thereafter, the chamber was washed twice with PBS, and treated with 70% MeOH (in PBS) for 30 min. The chamber was again washed twice with PBS, and treated with Hematoxylin solution for 30 min. The chamber was washed three times with DW, and the membrane in the chamber was cut and mounted on the slide glass.

[3] = tested on: mouse breast cancer 4T-1 cells; assay: In-vivo cancer metastasis model (lung metastasis)
Experimental: Since KRS can accelerate cell migration through 67LR associated with cancer metastasis, tumor (cancer) animal models were constructed using mouse breast cancer 4T-1 cells (Korean Cell Line Bank), which are well metastasizable to the lung. Orthotopic breast cancer animal models were constructed by injecting 4×10^4 4 T1 cells into the fat pad of six 7-week old BALB/cAnCr mice (Doo Yeol Biotech).
The cancer was injected into the mammary fat pad, and after 10 days (Day 10), cancer tissues were resected from the fat pad. After one day (Day 11), N3 IgG (10 mg/kg) was administered twice a week for two weeks at intervals of 3 days (a total of four times, Days 11, 14, 18, and 21) via tail vein i.v. injection, and the same dose of control mock IgG (Thermo #31154) was also administered. One week after the completion of the entire antibody dosing schedule, that is, 28 days after cancer injection, the mice were sacrificed to take lung tissue. Upon autopsy of lung tissue, the lung was inflated by injection of a saline solution into the bronchus through a syringe, collected, and then stored in Bouin's solution (Sigma #HT10132) for 24 h. Thereafter, the metastasis nodules in each lobe of the lung were counted through a microscope.
It has been known in the foregoing literature “Dae Gyu Kim et al., (2014)” that the YH16899 compound has an effect on cancer metastasis inhibition by suppressing the interaction between 67LR and KRS. Then, the cancer metastasis inhibitory effect was compared between YH16899 and N3 IgG, the antibody of the present invention. The construction of in-vivo tumor models and the observation of lung metastasis condition were carried out by the same method as in Example <3-3>. YH16899 was orally administered at 100 mpk every day. N3 IgG was intravenously injected at difference concentrations (1 mpk, 10 mpk) through mouse tails.

[4] = tested on: mouse KRS N-terminal peptide fragments (mF1-mF5); assay: SPR (Biacore T200) of immobilized N3 IgG against mouse KRS N-terminal peptide fragments; assay type: binding
Experimental: In the same manner as the experimental method described in Example 4-1 above, N3 IgG antibody was immobilized on the chip by using an amine coupling kit (GE Healthcare). Then, the peptides shown in Table 4 above dissolved in PBS solution at corresponding concentrations were allowed to flow for 60 s, and PBS was allowed to flow for 5 min. Then, the binding ability was analyzed by Biacore T200 Evaluation software v2.0 (GE Healthcare).

[5] = tested on: pulmonary arterial hypertension (PAH) models; assay: Echocardiography in PAH model; assay type: in vivo, rat; conditions: MCT PAH rats, five animals per group
Excerpt: To induce PAH in seven-week-old SD rats (Orient Bio), 60 mpk of monocrotaline (MCT) was subcutaneously injected. […] All antibodies were i.v. injected twice a week, and sildenafil was orally administered every day.

T1 sequence (Q15046 1-207): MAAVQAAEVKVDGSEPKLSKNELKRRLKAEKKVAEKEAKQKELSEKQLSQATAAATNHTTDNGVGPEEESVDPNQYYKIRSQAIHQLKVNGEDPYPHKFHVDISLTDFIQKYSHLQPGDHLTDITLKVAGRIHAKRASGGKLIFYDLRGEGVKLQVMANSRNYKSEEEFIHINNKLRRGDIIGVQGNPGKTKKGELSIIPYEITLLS

- Kd (KRS 1-207 aa): 83.4 nM
- ka (KRS 1-207 aa): 109000 M⁻¹ s⁻¹
- kd (KRS 1-207 aa): 0.009055 s⁻¹
B1: N3 IgG: IgG converted from N3 scFv; VH SEQ ID NO: 49, VL SEQ ID NO: 51; binds KRS N-terminal region (antibody, V domains shown)
VH: EVQLLESGGGLVQPGGSLRLSCAASGFTFSSYDMSWVRQAPGKGLEWVSAISYDNGNTYYADSVKGRFTISRDNSKNTLYLQMNSLRAEDTAVYYSARMALDFDYWGQGTLVTVSS
VL: QSVLTQPPSASGTPGQRVTISCTGSSSNIGSNYVTWYQQLPGTAPKLLIYDNSNRPSGVPDRFSGSKSGTSASLAISGLRSEDEADYYCASWDDSLSAYVFGGGTKLTVL
- cytotoxicity (MTT assay) (A549 cells [1]): no cytotoxicity
- inhibition of cell migration (A549 cells [2]): significantly inhibited
- lung metastasis nodules ([3]; 10 mg/kg i.v. twice a week for two weeks, vs mock IgG control): significantly suppressed
- laminin receptor expression in metastasis nodule sites of lung tissue ([3]; 10 mg/kg i.v., control vs N3 IgG treatment group): significantly large amount of laminin receptors were expressed in the metastasis nodule sites in control compared with the group treated with the antibody
- lung nodule count ([3]; 1 mpk and 10 mpk i.v.): significantly reduced in a dose-dependent manner
- cancer metastasis inhibition compared with YH16899 (100 mpk) ([3]; 1 mpk i.v.): significantly inhibited cancer metastasis compared with YH16899
- relative binding ability, epitope F3 vs F1 (mouse) [4]: stronger binding ability to epitope F3 than F1
- binding to mouse KRS N-terminal epitopes F1-F5 (SPR) ([4]; F2 and F4 data not shown): bound to epitopes F1, F2, F3, and F4 of human (h), mouse (m), and rat (r) but not epitope F5
- D-shaped left ventricle finding indicating pressure overload in the right ventricle [5]: not observed
